Measurements: US6458552B1, “Metalloprotease peptide substrates and methods” (Ortho-McNeil Pharmaceutical, Inc., priority 2000, dated 2002)

What was measured:
[1] = system: ADAM8; experiment: ADAM8 protein expression in THP-1 cells (immunoblot); assay type: cell-based, human; details: LPS 100 ng/ml 16 hours, IFN-γ 200U/ml 24 hours
Method: Polyclonal antisera against ADAM8 and ADAM15 were generated by immunizing rabbits with KLH-conjugated peptides corresponding to the C-terminal sequences of ADAM8 and 15, respectively. The antisera were used to detect ADAM8 and ADAM15 in THP-1 cell lysates. THP-1 cells were treated with interferon(IFN)-γ (200U/ml) or bacterial lipopolysaccharide (LPS) (100 ng/ml), for 24 hours or 16 hours, respectively. The cells were then harvested, washed with PBS and lysed in PBS containing 1% NP-40 and Complete® protease inhibitors. The cell extracts were analyzed for expression of ADAM8 and ADAM15 by SDS-PAGE, transfer to nitrocellulose, and immunoblotting with the antisera to ADAM8 and ADAM15, respectively. […] The corresponding pre-immune sera gave no positive bands at these molecular weights for THP-1 cell extracts in similar assays.

[2] = molecular target: T1, AD8P FRET peptide X-RTAAVFRP-Z (not fully specified)
T1 chain: RTAAVFRP

[3] = molecular target: T2, AD8P2 FRET peptide X-RVRRALPS-Z (not fully specified)
T2 chain: RVRRALPS

[4] = molecular target: T3, CD27L FRET peptide X-RFAQAQQQLP-Z (not fully specified)
T3 chain: RFAQAQQQLP

[5] = molecular target: T4, CatE FRET peptide X-KPAAFFRL-Z (not fully specified)
T4 chain: KPAAFFRL

[6] = molecular target: T5, CatE1 FRET peptide X-KPAKFFRL-Z (not fully specified)
T5 chain: KPAKFFRL

[7] = molecular target: T6, KAS-1 FRET peptide Z-RGVVNASSRLAK-X (not fully specified)
T6 chain: RGVVNASSRLAK

[8] = molecular target: T7, KL1 FRET peptide X-PPVAASSLRN-Z (not fully specified)
T7 chain: PPVAASSLRN

[9] = molecular target: T8, Mat FRET peptide Z-RPLGLAR-X (not fully specified)
T8 chain: RPLGLAR

[10] = molecular target: T9, TNFB2 FRET peptide X-PSAAQTARQHP-Z (not fully specified)
T9 chain: PSAAQTARQHP

[11] = molecular target: T10, TNFα FRET peptide X-PLAQAVRSSS-Z (not fully specified)
T10 chain: PLAQAVRSSS

[12] = molecular target: T11, TNFα(-4 + 6) FRET peptide Z-LAQAVRSSSR-X (not fully specified)
T11 chain: LAQAVRSSSR

[13] = system: membrane-bound CD23; experiment: Cleavage of CD23 from the surface of U937 cells by ADAM enzymes (flow cytometry); assay type: cell-based, human; details: U-937 cells, one hour at 37° C.
Method: U-937 (ATCC CRL-1593.2), a monoblastoid cell line, were harvested, washed and resuspended in HEPES-buffered saline, pH 7.5. Then the cells were treated for one hour at 37° C. in the absence or presence of ADAM8, ADAM17, ADAM15 or MDC-L. As a further control, some cells were incubated in the presence of ADAM8, ADAM17, ADAM15 or MDC-L with the addition of Inhibitor C. Intact, membrane-bound CD23 was then detected by staining the cells with a FITC-conjugated anti-human CD23 antibody (Pharmingen) and detection by flow cytometry.

IFN-γ: interferon-γ
Up-regulation of ADAM8 at the protein level [1]: approximately ten-fold

B1: recombinant ADAM17 (protein)
chain: RADPDPMKNTCKLLVVADHRFYRYMGRGEESTTTNYLIELIDRVDDIYRNTSWDNAGFKGYGIQIEQIRILKSPQEVKPGEKHYNMAKSYPNEEKDAWDVKMLLEQFSFDIAEEASKVCLAHLFTYQDFDMGTLGLAYVGSPRANSHGGVCPKAYYSPVGKKNIYLNSGLTSTKNYGKTILTKEADLVTTHELGHNFGAEHDPDGLAECAPNEDQGGKYVMYPIAVSGDHENNKMFSNCSKQSIYKTIESKAQECFQERSNKV
Relative proteolytic activity [2]: ***** | Relative proteolytic activity [3]: (-) | Relative proteolytic activity [4]: (-) | Relative proteolytic activity [5]: (-) | Relative proteolytic activity [6]: (-) | Relative proteolytic activity [7]: (-) | Relative proteolytic activity [8]: (-) | Relative proteolytic activity [9]: *** | Relative proteolytic activity [10]: (-) | Relative proteolytic activity [11]: *** | Relative proteolytic activity [12]: *** | Cleavage of membrane-bound CD23 from the cell surface [13]: does not cleave CD 23

B2: soluble recombinant human ADAM8, active (processed) form (protein)
chain: RYVELYVVVDNAEFQMLGSEAAVRHRVLEVVNHVDKLYQKLNFRVVLVGLEIWNSQDRFHVSPDPSVTLENLLTWQARQRTRRHLHDNVQLITGVDFTGTTVGFARVSAMCSHSSGAVNQDHSKNPVGVACTMAHEMGHNLGMDHDENVQGCRCQERFEAGRCIMAGSIGSSFPRMFSDCSQAYLESFLERPQSVCLANAP
Relative proteolytic activity [2]: * | Relative proteolytic activity [3]: *** | Hill coefficient [4]: allosteric kinetics with a Hill coefficient of approximately 3 | K0.5 (substrate concentration at which the enzyme activity was 50% of the Vmax) [4]: 5 µM | Relative proteolytic activity [4]: **** | Hill coefficient [5]: allosteric kinetics with a Hill coefficient of approximately 3 | K0.5 (substrate concentration at which the enzyme activity was 50% of the Vmax) [5]: 5 µM | Relative proteolytic activity [5]: ***** | FRET peptide zymography [6]: lanes 2 and 3 contain active, processed, ADAM8 preparations | Hill coefficient [6]: allosteric kinetics with a Hill coefficient of approximately 3 | K0.5 (substrate concentration at which the enzyme activity was 50% of the Vmax) [6]: 2.5 µM | Relative proteolytic activity [6]: ***** | Relative proteolytic activity [7]: *** | Relative proteolytic activity [8]: *** | Relative proteolytic activity [9]: *** | Relative proteolytic activity [10]: *** | Hill coefficient [11]: allosteric kinetics with a Hill coefficient of approximately 3 | K0.5 (substrate concentration at which the enzyme activity was 50% of the Vmax) [11]: 5 µM | Relative proteolytic activity [11]: *** | Relative proteolytic activity [12]: *

B3: soluble recombinant human ADAM15, active form (protein)
chain: DVVTETKTVELVIVADHSEAQKYRDFQHLLNRTLEVALLLDTFFRPLNVRVALVGLEAWTQRDLVEISPNPAVTLENFLHWRRAHLLPRLPHDSAQLVTGTSFSGPTVGMAIQNSICSPDFSGGVNMDHSTSILGVASSIAHELGHSLGLDHDLPGNSCPCPGPAPAKTCIMEASTDFLPGLNFSNCSRRALEKALLDGMGSCLFERL
Relative proteolytic activity [2]: * | Relative proteolytic activity [3]: *** | Relative proteolytic activity [4]: **** | Relative proteolytic activity [5]: ***** | Relative proteolytic activity [6]: ***** | Relative proteolytic activity [7]: *** | Relative proteolytic activity [8]: *** | Relative proteolytic activity [9]: *** | Relative proteolytic activity [10]: *** | Relative proteolytic activity [11]: *** | Relative proteolytic activity [12]: *

B4: soluble recombinant human MDC-L, active form (protein)
chain: VQEHEKYIEYYLVLDNGEFKRYNENQDEIRKRVFEMANYVNMLYKKLNTHVALVGMEIWTDKDKIKITPNASFTLENFSKWRGSVLSRRKRHDIAQLITATELAGTTVGLAFMSTMCSPYSVGVVQDHSDNLLRVAGTMAHEMGHNFGMFHDDYSCKCPSTICVMDKALSFYIPTDFSSCSRLSYDKFFEDKLSNCLFNAP
Relative proteolytic activity [2]: * | Relative proteolytic activity [3]: *** | Relative proteolytic activity [4]: **** | Relative proteolytic activity [5]: ***** | Relative proteolytic activity [6]: ***** | Relative proteolytic activity [7]: *** | Relative proteolytic activity [8]: *** | Relative proteolytic activity [9]: *** | Relative proteolytic activity [10]: *** | Relative proteolytic activity [11]: *** | Relative proteolytic activity [12]: *

B5: MDC-L: recombinant soluble MDC-L: pro- and protease domains with C-terminal FLAG epitope (protein)
chain: VQEHEKYIEYYLVLDNGEFKRYNENQDEIRKRVFEMANYVNMLYKKLNTHVALVGMEIWTDKDKIKITPNASFTLENFSKWRGSVLSRRKRHDIAQLITATELAGTTVGLAFMSTMCSPYSVGVVQDHSDNLLRVAGTMAHEMGHNFGMFHDDYSCKCPSTICVMDKALSFYIPTDFSSCSRLSYDKFFEDKLSNCLFNAP
modifications: left off: small tags and cut ends
Cleavage of membrane-bound CD23 from the cell surface [13]: similarly found to cleave membrane-bound CD23
